T1: nCRP (native pentameric C-reactive protein) (UniProt P02741 19-224)
T1 sequence: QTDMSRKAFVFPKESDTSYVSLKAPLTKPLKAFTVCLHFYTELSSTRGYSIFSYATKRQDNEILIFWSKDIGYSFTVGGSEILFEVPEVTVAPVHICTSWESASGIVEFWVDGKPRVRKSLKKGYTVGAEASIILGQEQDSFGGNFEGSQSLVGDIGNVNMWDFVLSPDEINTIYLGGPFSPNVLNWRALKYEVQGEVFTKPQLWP

T2: mCRP (monomeric C-reactive protein) (UniProt P02741 19-224)
T2 sequence: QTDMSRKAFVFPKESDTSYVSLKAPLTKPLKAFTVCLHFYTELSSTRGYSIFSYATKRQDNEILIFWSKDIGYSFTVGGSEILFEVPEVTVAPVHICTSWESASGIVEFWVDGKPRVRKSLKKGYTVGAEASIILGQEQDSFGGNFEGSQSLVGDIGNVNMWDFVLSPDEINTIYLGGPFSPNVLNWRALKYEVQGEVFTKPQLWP


Assays:
[1] = biological target: T1, nCRP (native pentameric C-reactive …); assay: bead pull-down, Qubit ssDNA quantification
[2] = biological target: T2, mCRP (monomeric C-reactive protein); assay: SPR

Binder | binding result [1] | Kd [2] [nM]
TTGACCCTTTAAGGTCGTCCGGAAACGGGC (ssDNA) [ApmCRP4] | no binding | –
CCAATGGCCCTAGGGCTGCAAATCGCTGCC (ssDNA) [ApmCRP3] | – | 400

— paper PMC12478261
